The chains are these.
B1: ADI-21084 (antibody, V domains shown)
VH: EVQLVESGAEVKKPGASVTVSCKASGYTFTSNTISWLRQAPGQGLEWLGWVSASNGNTKYAQKFQGRVTMTTDTSATTAYMEVRTLRHDDTAIYYCARDILDMGGFHFDNWGQGTLVTVSS
VL: SYVLTQPPSVSVAPGQTARITCGGNNIGNKHVHWYKQKPGQAPVLVVYDDSDRPSGIPERFSGSNSGNTATLTVSRVEAGDEADFYCQVWDNTNDHPVFGGGTKVTVL
B2: ADI-21091 (antibody, V domains shown)
VH: QVQLVQSGAEVKKPGESLRISCQYSAYGFSTYWISWVRQLPGKGLEWMGRIDPSDSHTTYSPSFQGHVTLSADKSISTVYLQWSSLKASDTAMYYCARHQEYSGSDLDSWGQGTLVTVSS
VL: QPVLTQPPSVSAAPGQRVTISCSGTRSNIGYNFVSWYQQLPGTAPKLLIYDNNKRPSGIPDRFSGSKSGTSATLAITGLQTGDEADYYCGTWDSSLSALFGGGTKVTVL
B3: ADI-21085 (antibody, V domains shown)
VH: EVQLVETGGGLVKPGGSLRLSCEASGFNFRSYSMNWVRQAPGKGLEWVSSISASSSYINYADSVKGRFTISRDNSKNSLYLQMNSLRAEDTGVYYCARVLVHYYYGMDVWGQGTTVTVSS
VL: QSVLTQPPSVSAAPGQRVTISCTGTSSNIGAGYDVHWYQQLPGRAPKLLILGNNNRPSGVPDRFSGSKSGTSASLAITGLQAEDEADYYCQTYDKTLMEIFGGGTKLTVL
notes: also called Ab 330
B4: ADI-41839 (antibody, V domains shown)
VH: EVQLLESGGGVVQPGGSLRLSCVASGFTFSAYGMHWVRQAPGKGPEWVAMTRSDGNKIYYADSVKGRFTISRDDSKNTLYLEMNSLRPDDTAVYFCAKEVGYGGNSLHYWGQGTLVTVSS
VL: SYELIQPPSVSVAPGQTAKITCGGNNIGSKSVHWYQQKPGQAPVLVVFDDSDRPSGIPERFSGSNSGNTATLTISRVEAGDEADYYCQVWDFSSDLWVFGGGTKLTVL
notes: also called Ab 939; Antibody Number 939
B5: ADI-41820 (antibody, V domains shown)
VH: EVQLVESGGGVVQPGRSLRLSCAVSGFTFSTYGMHWVRQTPGRGLEWVAVISYDGNHKYYADSVMGRFTISRDNSKDTLYLQVNSLRPEDSAVYYCAKDRIHCPNGVCYVHSSFYGLDVWGQGTTVTVSS
VL: QTVVTQEPSLTVSPGGTVTLTCGSSTGAVTSGHYPYWLQQKPGQAPRTLIYDTTNKDSWTPARFSGSLLGGKAALTLSGAQPEDEAQYYCLLSFNGPYWVFGGGTKVTVL
notes: also called Ab 926; Antibody Number 926
B6: ADI-43641 (antibody, V domains shown)
VH: EVQLVESGGGLVKPGGSLRLSCAASGFTFSDYYMSWIRQAPGKGLEWVSYISSSSSYTNYADSVKGRFTISRDNAKNSLYLQMNSLRAEDTAVYYCARDFSGQWLVLGYGMDVWGQGTTVTVSS
VL: QSVVTQPPSVSGAPGQRVTISCTGSSSNIGAGYDVHWYQQLPGTAPKLLIYGNSNRPSGVPDRFSGSKSGTSASLAITGLQAEDEADYYCQSYDSSLSGPVFGGGTKLTVL
notes: also called Ab 946; Antibody Number 946
B7: ADI-41838 (antibody, V domains shown)
VH: EVQLLESGGGVVQPGRSLRLSCAASEFTFRSYAMHWVRQAPGMGLEWVAVTPYDGISKYYADSVKGRFTISRDNSKNTLYLQMNSLRPEDTAVYYCARGFPEPITSWPGYFYAMDVWGQGTTVTVSS
VL: QSALTQPASVSGSPGQSITISCTGTTSDVGVYNYVSWYQQHPGKAPKLMIYDVSNRPSGVSNRFSGSKSGNTASLTISGLQAEDEADYYCSSYTNSDTPVVFGGGTKLTVL
notes: also called Ab 938; Antibody Number 938
B8: ADI-41833 (antibody, V domains shown)
VH: EVQLLESGGGLVQPGGSLRLSCAASRFTFSTYAMSWVRQAPGKGLEWVSSISGSGDKTFYTDSVKGRFTISRDNSKNTLYLQMNSLRAEDTAVYYCARESYYELWTGTYPGWELDYWGQGTLVTVSS
VL: DIQLTQSPSSLSASVGDRVTITCRASQDISNYLAWYQQKPGKPPKLLIYAASILESGAPSRFSGSGSGTDFTLTISSLQPEDVGTYYCQKSNSAPRPFGQGTKVEIK
B9: ADI-41836 (antibody, V domains shown)
VH: EVQLLESGAEVKKPGASVKVSCRASGYTFTSNTLHWVRQAPGQGLEWMGWINADNGNTRYSQKFQGRVTITRDTSANTAYMELSSLISEDTAVYYCAREWSGFWSGLNWFEPWGQGTLVTVSS
VL: QSVLTQPPSVSGAPGQRVTISCTGSSSNIGSGNDVHWYQQFPGTAPKVLIYVNSIRPSGVSDRFSGSKSGTSASLAITGLRAEDEADYYCQSYDSSLNGVAFGGGTKLTVL
B10: ADI-41827 (antibody, V domains shown)
VH: EVQLSESAGGVVQPGGSLRLTCAASGFSFSTNGMHWVRQAPGKGLEWVAFIRYDGSKKYYAESVKGRFTISREDSNNTLYLQMNSLRPEDTAVYYCAKEDCSGGTCYHERNYYYYGMDVWGQGTTVTVSS
VL: QPVLTQPPSLPVSPGQTASITCSGDKLEYKYACWYQHKPGQSPVLVIYQDNKRPSGIPERFSGSNSGNTATLTISGTQPMDEADYYCQAWDSSTVVFGGGTKVTVL
B11: ADI-41837 (antibody, V domains shown)
VH: QVQLVQSGAEVKKPGASVKVSCKASGYTFTSYGISWVRQAPGQGLEWMGWISAYSGDTDYAQKLQGRVTMTTDTATSTAYMELRSLRSDDTAVYYCARDAHCSSTNCYIDLGGAPVDYWGQGTLVTVSS
VL: DIVLTQTPLSLSVTLGQPASISCRSSQSLVYIDGYTYLNWFQQRPGQSPRRLIYKVSNRDSGVPDRFSGSGSGTDFTLKISRVEAEDVGVYYCMQGAHWPWTFGQGTKVEIK
notes: also called Ab 937; Antibody Number 937
B12: ADI-41815 (antibody, V domains shown)
VH: EVQLLESGGGLVKPGGSLRLSCGASGFTFSTSSFNWVRQAPGKGLEWVSSISSTSSYVFYADSVKGRFTVSRDNAQNSLYLQMNSLRAEDTAVYYCARARGVGATIGFDYWGQGTLVTVSS
VL: not shown
notes: also called Ab 922; Antibody Number 922

The values below come from US20260258115A1 (MAPP BIOPHARMACEUTICAL, published 2026).

The target in the first experiment is RSV F on recombinant mKate-RSV A2 virus (Respiratory syncytial virus A2, UniProt P03420 26-574). Description: cell-based or functional assay.
On to B1, for which the “Neut IC50 (ug/ml) subtype A” value was determined as 0.14 µg/mL.
B2: the “Neut IC50 (ug/ml) subtype A” value amounted to 0.29 µg/mL.
Regarding B3, the “Neut IC50 (ug/ml) subtype A” value worked out at 0.1 µg/mL.

In another experiment the target is RSV F on recombinant mKate-RSV B 18537 virus (Respiratory syncytial virus B 18537, UniProt P13843 26-574). Put plainly: cell-based or functional assay.
In the case of B1, the “Neut IC50 (ug/ml) subtype B” value amounted to 0.46 µg/mL.
The same measure, in the same setting: with B2 the figure was 0.92 µg/mL; with B3, 0.48 µg/mL.

For the next experiment, the target named is RSV F on RSV subtype A virus (RSV-A2) (Respiratory Syncytial Virus, subtype A, …, UniProt P03420 26-574). Description: cell-based or functional assay.
Turning to B4, the “Neutralization IC50 (RSV subtype A)” value was > 25 µg/mL.
Still for that read-out and setting: with B5 the figure was > 25 µg/mL; with B6, > 25 µg/mL; with B7, > 25 µg/mL.
Same read-out and setting: the same measure for B8: 0.02 µg/mL; for B9: > 25 µg/mL; for B10: > 25 µg/mL.
On to B11, for which the “Neutralization IC50 (RSV subtype A)” value is > 25 µg/mL.
On the same count and under the same terms, the same measure for B12: > 25 µg/mL.

Another experiment deals with RSV prefusion F, subtype A (preF, DS-Cav1 trimer) (Respiratory syncytial virus subtype A, UniProt P03420 26-513). Description: BLI, IgG apparent affinity. A general note: Biolayer interferometry detects binding as a change in optical thickness at a sensor tip.
As to B1, the Kd came to 0.109 nM.
On the same count and under the same terms, the same measure for B2: 0.749 nM.
The same measure, in the same setting: the same measure for B3: 0.307 nM.

For another experiment, the target named is T1, RSV postfusion F, subtype A (postF, F ΔFP trimer) (Respiratory syncytial virus subtype A, UniProt P03420 26-513).
T1 construct: also called Postfusion subtype A
Description: BLI, IgG apparent affinity.
With B1, the Kd is 17.3 nM.
Regarding B2, the binding result is reported as “no binding”.
Turning to B3, the binding result is on record as “no binding”.

The next experiment deals with T2, RSV postfusion F, subtype B (postF trimer) (Respiratory syncytial virus subtype B, UniProt P13843 26-513).
T2 construct: also called Postfusion subtype B
Put plainly: BLI, IgG apparent affinity.
Take B1: the Kd turned out to be 22.9 nM.
In the case of B2, the binding result is listed as “no binding”.
Regarding B3, the Kd turned out to be 6.24 nM.

The next experiment concerns the target RSV postfusion F (postF), F ΔFP trimer, subtype A (Respiratory Syncytial Virus, subtype A, UniProt P03420 26-513). Put plainly: BLI, IgG on anti-human IgG sensors.
Regarding B4, the binding result is “no binding (tested: 100 nM antigen)”.
For the molecule B5, the binding result is recorded as “no binding (tested: 100 nM antigen)”.
With B6, the binding result is on record as “no binding (tested: 100 nM antigen)”.
On the same count and under the same terms, with B7 the entry was “no binding (tested: 100 nM antigen)”.
Same read-out and setting: the same measure for B8: “no binding (tested: 100 nM antigen)”; for B9: “no binding (tested: 100 nM antigen)”.
As for B10, the binding result is reported as “no binding (tested: 100 nM antigen)”.
Turning to B11, the binding result was “no binding (tested: 100 nM antigen)”.
B12: the binding result is “no binding (tested: 100 nM antigen)”.

The next experiment concerns the target RSV prefusion F (preF), DS-Cav1 stabilized trimer, subtype A (Respiratory Syncytial Virus, subtype A, UniProt P03420 26-513). Description: BLI, IgG on anti-human IgG sensors, 100 nM antigen, apparent KD.
Regarding B4, the Kd was determined as 7.88 nM.
On the same count and under the same terms, the same measure for B5: 64.9 nM; for B6: 37.5 nM.
Still for that read-out and setting: the same measure for B7: 32.1 nM; for B8: 0.723 nM; for B9: 5.74 nM.
On the same count and under the same terms, the same measure for B10: 0.186 nM; for B11: 7.09 nM; for B12: 3.21 nM.
